Results on 71 substances are retold here after patent US10738094B2, “Peptides and combination of peptides for use in immunotherapy against ovarian cancer and other cancers” (immatics biotechnologies GmbH, priority 2015, dated 2020).

For this assay, the target named is HLA-A*02:01 (Homo sapiens, UniProt P04439, D140Y/D185E/D98H/E176V/E277Q/G131W/G231S/I119V/I121R/I166T/I218V/L300P/L318F/N151K/N90K/P208A/P217A/Q86G/Q94H/R138H/R169H/T345S). Kind of assay: MHC binding assay (UV-ligand exchange, beta2m ELISA). As to conditions: binding to HLA-A*02:01 ranged by peptide exchange yield (UV-ligand exchange, β2m ELISA). A digest of the protocol:
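UV-cleavable ligand in peptide-MHC complexes was exchanged for test peptide. Exchange yield came from an ELISA on streptavidin-captured complexes diluted 100 fold, detecting β2m with HRP anti-β2m (2 ug/ml, 1 h, 37° C.), TMB, A450.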
(In general: In an ELISA, binding on a coated surface is turned into a signal by an enzyme label.)
In the case of “574 (YLLQEPPRTV; listed as Homo sapiens) [compound 574]”, the Peptide exchange entry was ““++” (≥20% = ++)”. The same measure for “149 (NLLELFVQL; listed as Homo sapiens) [compound 149]”: ““+++” (≥50 = +++)”. Take “122 (FLLAEDDIYL; listed as Homo sapiens) [compound 122]”: the Peptide exchange entry is recorded as ““+++” (≥50 = +++)”. In the case of “513 (SLWPSPEQL; listed as Homo sapiens) [compound 513]” it was ““++” (≥20% = ++)”. The same measure for “343 (SLLEVNEESTV; listed as Homo sapiens) [compound 343]”: ““+++” (≥50 = +++)”; for “539 (ALFDAQAQV; listed as Homo sapiens) [compound 539]”: ““+++” (≥50 = +++)”; for “35 (KINDTIYEV; listed as Homo sapiens) [compound 35]”: ““+++” (≥50 = +++)”.

“10 (FLATFPLAAV; listed as Homo sapiens) [compound 10]”: the Peptide exchange result is ““++++” (≥75% = ++++)”. “324 (FLYDEIEAEV; listed as Homo sapiens) [compound 324]”: the Peptide exchange entry was ““+++” (≥50 = +++)”. The same measure for “184 (YLMDINGKMWL; listed as Homo sapiens) [compound 184]”: ““+++” (≥50 = +++)”.

For the substance “174 (ALAQYLITA; listed as Homo sapiens) [compound 174]”, the Peptide exchange entry is recorded as ““+++” (≥50 = +++)”. As to “193 (QLLDADGFLNV; listed as Homo sapiens) [compound 193]”, the Peptide exchange result is listed as ““+++” (≥50 = +++)”. The same measure for “374 (FLLQQHLISA; listed as Homo sapiens) [compound 374]”: ““++” (≥20% = ++)”. In the case of “304 (MTLGQIYYL; listed as Homo sapiens) [compound 304]” it was ““+++” (≥50 = +++)”; in that of “572 (ALADLIEKELSV; listed as Homo sapiens) [compound 572]”, ““+++” (≥50 = +++)”. The same measure for “27 (ILADIVISA; listed as Homo sapiens) [compound 27]”: ““+++” (≥50 = +++)”; for “303 (AILPQLFMV; listed as Homo sapiens) [compound 303]”: ““++++” (≥75% = ++++)”; for “507 (KLIDDQDISISL; listed as Homo sapiens) [compound 507]”: ““+++” (≥50 = +++)”. Take “258 (ELAERVPAI; listed as Homo sapiens) [compound 258]”: the Peptide exchange entry was ““++” (≥20% = ++)”.

Regarding “248 (FLFPNQYVDV; listed as Homo sapiens) [compound 248]”, the Peptide exchange result is listed as ““+++” (≥50 = +++)”. Take “478 (YLLHEKLNL; listed as Homo sapiens) [compound 478]”: the Peptide exchange entry is ““+++” (≥50 = +++)”. On to “579 (NLMEMVAQL; listed as Homo sapiens) [compound 579]”, for which the Peptide exchange result is ““++” (≥20% = ++)”. The same measure for “251 (ALYTGFSILV; listed as Homo sapiens) [compound 251]”: ““++” (≥20% = ++)”; for “67 (TLLAEALVTV; listed as Homo sapiens) [compound 67]”: ““+++” (≥50 = +++)”; for “244 (SLFGGTEITI; listed as Homo sapiens) [compound 244]”: ““+++” (≥50 = +++)”.

“481 (GLIEDYEALL; listed as Homo sapiens) [compound 481]”: the Peptide exchange entry is on record as ““+++” (≥50 = +++)”. In the case of “208 (KISPVTFSV; listed as Homo sapiens) [compound 208]” it was ““+++” (≥50 = +++)”; in that of “103 (TLAEEVVAL; listed as Homo sapiens) [compound 103]”, ““+++” (≥50 = +++)”; in that of “515 (LLQELVLFL; listed as Homo sapiens) [compound 515]”, ““+++” (≥50 = +++)”. In the case of “311 (RLYTGMHTV; listed as Homo sapiens) [compound 311]” it was ““+++” (≥50 = +++)”.

On to “502 (RLLAQVPGL; listed as Homo sapiens) [compound 502]”, for which the Peptide exchange entry is reported as ““+++” (≥50 = +++)”. The same measure for “491 (GLNDRSDAV; listed as Homo sapiens) [compound 491]”: ““++” (≥20% = ++)”; for “347 (SLFKHDPAAWEA; listed as Homo sapiens) [compound 347]”: ““++++” (≥75% = ++++)”; for “605 (KLYEAVPQL; listed as Homo sapiens) [compound 605]”: ““+++” (≥50 = +++)”. As to “169 (NLPEYLPFV; listed as Homo sapiens) [compound 169]”, the Peptide exchange entry is given as ““+++” (≥50 = +++)”. Turning to “179 (KVLNELYTV; listed as Homo sapiens) [compound 179]”, the Peptide exchange result is reported as ““+++” (≥50 = +++)”.

Turning to “562 (YLEELPEKLKL; listed as Homo sapiens) [compound 562]”, the Peptide exchange entry was ““+++” (≥50 = +++)”.

As to “448 (NLLETKLQL; listed as Homo sapiens) [compound 448]”, the Peptide exchange entry is reported as ““+++” (≥50 = +++)”. On to “570 (ALANQIPTV; listed as Homo sapiens) [compound 570]”, for which the Peptide exchange result was ““++” (≥20% = ++)”. Regarding “388 (SLTIDGIRYV; listed as Homo sapiens) [compound 388]”, the Peptide exchange entry was ““+++” (≥50 = +++)”.

On to “12 (SLWPDPMEV; listed as Homo sapiens) [compound 12]”, for which the Peptide exchange entry is reported as ““+++” (≥50 = +++)”. In the case of “520 (LAVHPSGVAL; listed as Homo sapiens) [compound 520]” it was ““+” (≥10% = +)”. As to “365 (YVIDQGETDVYV; listed as Homo sapiens) [compound 365]”, the Peptide exchange entry is listed as ““+++” (≥50 = +++)”.

In the case of “310 (FLVDTPLARA; listed as Homo sapiens) [compound 310]”, the Peptide exchange entry is reported as ““++++” (≥75% = ++++)”. In the case of “104 (STMEQNFLL; listed as Homo sapiens) [compound 104]” it was ““++++” (≥75% = ++++)”; in that of “471 (YLYNNMIAKI; listed as Homo sapiens) [compound 471]”, ““+++” (≥50 = +++)”; in that of “576 (ILLNNSGQIKL; listed as Homo sapiens) [compound 576]”, ““++++” (≥75% = ++++)”. For the substance “168 (KILDADIQL; listed as Homo sapiens) [compound 168]”, the Peptide exchange entry is given as ““++++” (≥75% = ++++)”. As to “160 (FLFDEEIEQI; listed as Homo sapiens) [compound 160]”, the Peptide exchange result is on record as ““+++” (≥50 = +++)”. On to “485 (NVPDSFNEV; listed as Homo sapiens) [compound 485]”, for which the Peptide exchange result is on record as ““+++” (≥50 = +++)”. In the case of “95 (SVIPQIQKV; listed as Homo sapiens) [compound 95]” it was ““+++” (≥50 = +++)”; in that of “88 (FLLVGDLMAV; listed as Homo sapiens) [compound 88]”, ““+++” (≥50 = +++)”; in that of “466 (VLIANLEKL; listed as Homo sapiens) [compound 466]”, ““++++” (≥75% = ++++)”. In the case of “261 (YVLEFLEEI; listed as Homo sapiens) [compound 261]” it was ““++” (≥20% = ++)”. For the substance “567 (SLLPLDDIVRV; listed as Homo sapiens) [compound 567]”, the Peptide exchange entry is on record as ““+++” (≥50 = +++)”.

Consider “615 (VLPPDTDPA; listed as Homo sapiens) [compound 615]”, for which the Peptide exchange entry is ““++” (≥20% = ++)”. The same measure for “297 (VLADIELAQA; listed as Homo sapiens) [compound 297]”: ““+++” (≥50 = +++)”; for “335 (YSLSSVVTV; listed as Homo sapiens) [compound 335]”: ““+++” (≥50 = +++)”. The same measure for “151 (KILQQLVTL; listed as Homo sapiens) [compound 151]”: ““+++” (≥50 = +++)”; for “45 (SLWQDIPDV; listed as Homo sapiens) [compound 45]”: ““+++” (≥50 = +++)”; for “233 (VLSETLYEL; listed as Homo sapiens) [compound 233]”: ““++” (≥20% = ++)”.

“245 (SMIDDLLGV; listed as Homo sapiens) [compound 245]”: the Peptide exchange result is ““+++” (≥50 = +++)”. On to “602 (YLLEQIKLIEV; listed as Homo sapiens) [compound 602]”, for which the Peptide exchange entry was ““++++” (≥75% = ++++)”.

For “580 (LLMENAERV; listed as Homo sapiens) [compound 580]”, the Peptide exchange result is ““++” (≥20% = ++)”. “152 (ILFEDIFDV; listed as Homo sapiens) [compound 152]”: the Peptide exchange result was ““+++” (≥50 = +++)”. With “49 (YLPAVFEEV; listed as Homo sapiens) [compound 49]”, the Peptide exchange result is on record as ““+++” (≥50 = +++)”. Regarding “565 (ALQETPTSV; listed as Homo sapiens) [compound 565]”, the Peptide exchange entry is ““++” (≥20% = ++)”. The same measure for “401 (ILLDDTGLAYI; listed as Homo sapiens) [compound 401]”: ““+++” (≥50 = +++)”; for “622 (RLLGEEVVRVLQA; listed as Homo sapiens) [compound 622]”: ““+++” (≥50 = +++)”. The same measure for “7 (SLVGLLLYL; listed as Homo sapiens) [compound 7]”: ““++++” (≥75% = ++++)”. In the case of “78 (SLFSSLEPQIQPV; listed as Homo sapiens) [compound 78]”, the Peptide exchange entry is listed as ““+++” (≥50 = +++)”.
